From patent US20160222109A1 (DYAX, published 2016)

Assays:
[1] = target: T1, soluble human FcRn (extra-cellular domain of heavy chain and β2M) (human, UniProt P55899 24-297; P61769 21-119); test: SPR 8500, hFcRn pH 7.4
T1 construct: also called shFcRn; soluble hFcRn

[2] = target: T2, human FcRn / human β2M expressed in 293 C11 cells (human, UniProt P55899 24-365; P61769 21-119); test: FACS blocking of IgG-Fc, sol Fab, pH 6
T2 construct: HEK 293 cells engineered to overexpress FcRn; also called hFcRn (cells); hFcRn in THP-1 and Caco-2 cells

[3] = target: T3, rat FcRn / rat β2M expressed on cells (rat, UniProt P13599 23-366; P07151 21-119); test: FACS blocking of IgG-Fc, sol Fab, pH 6
T3 construct: also called rat FcRn (cells); rat fibroblasts expressing rat FcRn
T3 sequence: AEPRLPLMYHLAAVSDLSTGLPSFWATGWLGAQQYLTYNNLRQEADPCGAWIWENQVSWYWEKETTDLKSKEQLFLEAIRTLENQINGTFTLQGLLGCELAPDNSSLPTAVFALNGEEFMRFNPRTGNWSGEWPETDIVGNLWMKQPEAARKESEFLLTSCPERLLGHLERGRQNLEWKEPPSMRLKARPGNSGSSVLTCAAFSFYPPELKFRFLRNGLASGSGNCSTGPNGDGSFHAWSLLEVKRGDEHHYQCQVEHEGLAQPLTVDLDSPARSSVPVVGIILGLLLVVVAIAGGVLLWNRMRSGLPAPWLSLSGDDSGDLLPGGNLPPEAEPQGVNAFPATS
T3 sequence (b2m): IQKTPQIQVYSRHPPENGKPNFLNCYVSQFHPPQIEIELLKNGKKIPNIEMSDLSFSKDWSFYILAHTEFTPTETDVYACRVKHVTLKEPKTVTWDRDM

[4] = target: T1, soluble human FcRn (extra-cellular …); test: SPR 8500, hFcRn pH 6
[5] = target: T1, soluble human FcRn (extra-cellular …); test: SPR, sol Fab, pH 7.4
[6] = target: T1, soluble human FcRn (extra-cellular …); test: SPR 8500, hFcRn pH 7.4; remark: listed apart in the source
[7] = target: T4, soluble rat FcRn (rat, UniProt P13599 23-298; P07151 21-119); test: SPR 8500, rat FcRn pH 7.4
T4 construct: Soluble protein; whole entries named; also called sol rat FcRn
T4 sequence: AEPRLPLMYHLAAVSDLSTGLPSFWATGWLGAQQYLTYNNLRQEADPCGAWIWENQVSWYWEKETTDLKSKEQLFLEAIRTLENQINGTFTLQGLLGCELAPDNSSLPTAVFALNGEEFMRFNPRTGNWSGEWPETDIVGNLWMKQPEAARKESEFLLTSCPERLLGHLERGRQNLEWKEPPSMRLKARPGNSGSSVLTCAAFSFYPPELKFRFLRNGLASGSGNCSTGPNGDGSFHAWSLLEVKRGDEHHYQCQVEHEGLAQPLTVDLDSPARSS
T4 sequence (b2m): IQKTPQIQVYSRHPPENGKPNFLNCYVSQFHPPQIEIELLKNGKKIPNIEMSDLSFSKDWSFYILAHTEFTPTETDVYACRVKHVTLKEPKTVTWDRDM

[8] = target: T4, soluble rat FcRn; test: SPR 8500, rat FcRn pH 7.4; rat FcRn pH 7.4
[9] = target: T4, soluble rat FcRn; test: SPR 8500, rat FcRn pH 6
[10] = target: T1, soluble human FcRn (extra-cellular …); test: SPR 8500, sol Fab, pH 6
[11] = target: T4, soluble rat FcRn; test: SPR 8500, sol Fab, pH 6
[12] = target: T1, soluble human FcRn (extra-cellular …); test: SPR, sol Fab, pH 6.0
[13] = target: T1, soluble human FcRn (extra-cellular …); test: SPR 8500, hFcRn pH 6; remark: listed apart in the source
[14] = target: T1, soluble human FcRn (extra-cellular …); test: SPR 8500, sol Fab, pH 7.5
[15] = target: T4, soluble rat FcRn; test: SPR 8500, sol Fab, pH 7.5
[16] = target: T4, soluble rat FcRn; test: SPR 8500, rat FcRn pH 6; remark: listed apart in the source
[17] = target: T2, human FcRn / human β2M expressed in 293 …; test: FACS blocking, hFcRn cells, pH 6
[18] = target: T1, soluble human FcRn (extra-cellular …); test: Biacore, IgG on chip, hFcRn flowed, pH 6
[19] = target: T1, soluble human FcRn (extra-cellular …); test: Biacore, hFcRn on chip, IgG flowed, pH 6
[20] = target: T1, soluble human FcRn (extra-cellular …); test: Biacore, IgG on chip, hFcRn flowed, pH 7.4
[21] = target: T1, soluble human FcRn (extra-cellular …); test: Biacore, hFcRn on chip, IgG flowed, pH 7.4
[22] = target: T1, soluble human FcRn (extra-cellular …); test: Biacore, IgG on chip, hFcRn flowed, pH 7.4; remark: listed apart in the source

T2 sequence (P55899 24-365 limits assumed, chain 1 of 2): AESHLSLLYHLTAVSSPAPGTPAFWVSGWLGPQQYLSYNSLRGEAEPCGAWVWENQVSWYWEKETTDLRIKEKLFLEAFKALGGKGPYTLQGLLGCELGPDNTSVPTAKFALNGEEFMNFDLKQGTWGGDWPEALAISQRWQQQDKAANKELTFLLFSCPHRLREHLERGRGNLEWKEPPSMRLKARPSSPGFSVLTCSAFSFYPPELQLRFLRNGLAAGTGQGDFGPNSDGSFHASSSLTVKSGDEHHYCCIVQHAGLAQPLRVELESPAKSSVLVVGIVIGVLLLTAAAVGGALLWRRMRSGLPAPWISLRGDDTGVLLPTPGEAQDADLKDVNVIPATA
T2 sequence (P61769 21-119 limits assumed, chain 2 of 2): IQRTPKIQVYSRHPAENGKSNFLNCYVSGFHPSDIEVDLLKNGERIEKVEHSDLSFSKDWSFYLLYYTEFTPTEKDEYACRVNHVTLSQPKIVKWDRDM
T1 sequence (P55899 24-297 limits assumed, chain 1 of 2): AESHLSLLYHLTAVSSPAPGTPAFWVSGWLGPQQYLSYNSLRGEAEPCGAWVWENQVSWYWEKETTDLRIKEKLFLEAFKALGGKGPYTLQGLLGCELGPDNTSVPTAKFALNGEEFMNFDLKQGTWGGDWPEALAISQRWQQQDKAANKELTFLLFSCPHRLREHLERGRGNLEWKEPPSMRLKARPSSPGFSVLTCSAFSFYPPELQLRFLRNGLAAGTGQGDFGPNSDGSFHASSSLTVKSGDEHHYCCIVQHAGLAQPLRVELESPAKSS
T1 sequence (P61769 21-119 limits assumed, chain 2 of 2): as the sequence (P61769 21-119 limits assumed, chain 2 of 2) above

B1: 532A-M0090-F11 soluble Fab (Fab)
VH: EVQLLESGGGLVQPGGSLRLSCAASGFTFSEYAMGWVRQAPGKGLEWVSSIGSSGGQTKYADSVKGRFTISRDNSKNTLYLQMNSLRAEDTAVYYCARLSTGELYWGQGTLVTVSS
light: QSVLTQPASVSGSPGQSITISCTGTGSDVGSYNLVSWYQKYPGKAPKLIIYGDSQRPSGLSSRFSGSKSGNSASLTISGLQAEDEADYYCCSYAGSGIYVFGSGTKVTVLSQPKANPTVTLFPPSSEELQANKATLVCLISDFYPGAVTVAWKADGSPVKAGVETTKPSKQSNNKYAASSYLSLTPEQWKSHRSYSCQVTHEGSTVEKTVAPAECS
notes: sFab from phage display; CH1 not set out for the Fab; also called M90-F11 (Fab); M090-F11
Kd [1]: 7.08 nM
IC50 [2]: 13 nM
IC50 [3]: 6.48 µM
Kd [4]: 6.11 nM
Fold Kd Improvement Over Germlined M90-F11 [5]: 2.3 fold
Kd [5]: 13 nM
Kd [6]: 19.1 nM
Kd [7]: 3.29 nM
Kd [8]: 9.96 nM
Kd [9]: 20.3 nM
Kd [10]: 9.2 nM
Kd [11]: 31.2 nM
Kd [12]: 12 nM
Kd [13]: 9.2 nM
Kd [14]: 19.1 nM
Kd [15]: 9.9 nM
Kd [16]: 31.2 nM

B2: 532A-M0090-F11 (germlined LC changes) IgG (antibody)
heavy: EVQLLESGGGLVQPGGSLRLSCAASGFTFSEYAMGWVRQAPGKGLEWVSSIGSSGGQTKYADSVKGRFTISRDNSKNTLYLQMNSLRAEDTAVYYCARLSTGELYWGQGTLVTVSSASTKGPSVFPLAPSSKSTSGGTAALGCLVKDYFPEPVTVSWNSGALTSGVHTFPAVLQSSGLYSLSSVVTVPSSSLGTQTYICNVNHKPSNTKVDKKVEPKSCDKTHTCPPCAPELLGGPSVFLFPPKPKDTLMISRTPEVTCVVVDVSHEDPEVKFNWYVDGVEVHNAKTKPREEQYNSTYRVVSVLTVLHQDWLNGKEYKCKVSNKALPAPIEKTISKAKGQPREPQVYTLPPSPREPQVYTLPPSRDELTKNQVSLTCLVKGFYPSDIAVEWESNGQPENNYKTTPPVLDSDGSFFLYSKLTVDKSRWQQGNVFSCSVMHEALHNHYTQKSLSLSPGK
light: QSALTQPASVSGSPGQSITISCTGTGSDVGSYNLVSWYQQHPGKAPKLMIYGDSQRPSGVSNRFSGSKSGNTASLTISGLQAEDEADYYCCSYAGSGIYVFGTGTKVTVLGQPKANPTVTLFPPSSEELQANKATLVCLISDFYPGAVTVAWKADGSPVKAGVETTKPSKQSNNKYAASSYLSLTPEQWKSHRSYSCQVTHEGSTVEKTVAPTECS
notes: also called Germlined M90-F11 (GL)
IC50 [17]: 0.38 nM
Kd [18]: 29.9 nM
koff [18]: 0.0172 s⁻¹
kon [18]: 574000 M⁻¹ s⁻¹
Kd [19]: 0.172 nM
koff [19]: 0.000764 s⁻¹
kon [19]: 4.45e+06 M⁻¹ s⁻¹
Kd [20]: 35.2 nM
koff [20]: 0.0152 s⁻¹
kon [20]: 433000 M⁻¹ s⁻¹
Kd [21]: 0.779 nM
koff [21]: 0.000776 s⁻¹
kon [21]: 996000 M⁻¹ s⁻¹

B3: DX-2500 (germlined LC & allotype HC changes) (antibody)
heavy: EVQLLESGGGLVQPGGSLRLSCAASGFTFSEYAMGWVRQAPGKGLEWVSSIGSSGGQTKYADSVKGRFTISRDNSKNTLYLQMNSLRAEDTAVYYCARLSTGELYWGQGTLVTVSSASTKGPSVFPLAPSSKSTSGGTAALGCLVKDYFPEPVTVSWNSGALTSGVHTFPAVLQSSGLYSLSSVVTVPSSSLGTQTYICNVNHKPSNTKVDKRVEPKSCDKTHTCPPCAPELLGGPSVFLFPPKPKDTLMISRTPEVTCVVVDVSHEDPEVKFNWYVDGVEVHNAKTKPREEQYNSTYRVVSVLTVLHQDWLNGKEYKCKVSNKALPAPIEKTISKAKGQPREPQVYTLPPSPREPQVYTLPPSREEMTKNQVSLTCLVKGFYPSDIAVEWESNGQPENNYKTTPPVLDSDGSFFLYSKLTVDKSRWQQGNVFSCSVMHEALHNHYTQKSLSLSPGK
light: QSALTQPASVSGSPGQSITISCTGTGSDVGSYNLVSWYQQHPGKAPKLMIYGDSQRPSGVSNRFSGSKSGNTASLTISGLQAEDEADYYCCSYAGSGIYVFGTGTKVTVLGQPKANPTVTLFPPSSEELQANKATLVCLISDFYPGAVTVAWKADGSPVKAGVETTKPSKQSNNKYAASSYLSLTPEQWKSHRSYSCQVTHEGSTVEKTVAPTECS
notes: IgG, F allotype; 13 amino acid changes against parent M90-F11
IC50 [17]: 0.65 nM
Kd [18]: 27.6 nM
koff [18]: 0.0177 s⁻¹
kon [18]: 642000 M⁻¹ s⁻¹
K off Fold improvement over DX2500 [22]: 1 fold
K off Fold improvement over M90-F11 [22]: 0.15 fold
KD Fold improvement over DX2500 [22]: 1 fold
KD Fold improvement over M90-F11 [22]: 0.21 fold
Kd [22]: 87.9 nM
koff [22]: 0.0197 s⁻¹
kon [22]: 224000 M⁻¹ s⁻¹
Kd [19]: 0.16 nM
koff [19]: 0.000336 s⁻¹
kon [19]: 2.11e+06 M⁻¹ s⁻¹
Kd [21]: 0.268 nM
koff [21]: 0.000338 s⁻¹
kon [21]: 1.26e+06 M⁻¹ s⁻¹
